One may read the Kd as the free concentration of one partner at which half of the binding sites on the other are occupied at equilibrium, for simple one-to-one binding. A lower Kd goes with a tighter complex.

Data on 40 molecules can be found in article PMC9170038.

Some results are limits rather than exact numbers.

B1: Eterna 7670795 (Exclusion - Tryptophan B) (ssRNA)
RNA: GGAUAGGACACGGCCGCCACUACCUAGGAUACUAGCAACAUUUGGGUACGUGAGGAUCACCCACGUAGGACCGGGUGUCCUAUCG
B2: Eterna 7732393 (Same State - FMN B) (ssRNA)
RNA: AUUUUUUUGUCAGGAUAUUAGUGUGGGUUUGGUUUGUUAGUGAUGUUGAUAUUUGUUUUAUGUAUUUAAGAAGGGAUUUAGCGGU
B3: Eterna 12242 (Exclusion 3) (ssRNA)
RNA: GACUAGGCAGGAUAUACAUGAGGAUCACCCAUGUGUCUGCGAUAGGCACGUGAUUACUGUAGAAGGGCCUUGAC
B4: Eterna 5978372 (Brourd's mod of Exclusion 4) (ssRNA)
RNA: GCGUCUCCUGUCAGGAUAUGCACCGGCUCGCCGGCGUAGAAGGGACAUGAGGAUCACCCAUGUGGUCUACACUU
B5: Eterna 11866 (Sensor v3, turn-off variant 2) (ssRNA)
RNA: CUUAGCCUAAAAUCACGCAAGCUUUCUGCUUGUCUUAAGACAUGAGGAUCACCCAUGUCCGGGCUGAACUUAUGGAA
B6: Eterna 6406790 (Exclusion NG 3) (ssRNA)
RNA: GUACUGAAGCUUUGCUUUAGUCGUACAUGAGGAUCACCCAUGUAGGAUAUGGUAGGCUUUGCUUACUAGAAGGAUAGAGUGAUU
B7: Eterna 6080103 (Exclusion 1) (ssRNA)
RNA: CCCGGACAUGAGGAUCACCCAUGUUAGGAUAUCUAGAGGAUCUAAACCGAAUAGAUCCAGAGAAGGGAUGUGGG
B8: Eterna 9406 (Exclusion 4) (ssRNA)
RNA: UUCAUGUGAGGAUAUGUGAUCUGCUUUCUGUUUAGAUGAUCACAGAAGGCACAUGAGGAUCACCCAUGUAGAUC
B9: Eterna 6145156 (Exclusion NG 1) (ssRNA)
RNA: UUAAAUCAUGUAGGAUAUGCAUGGCGAAGCUACGCAGAAGGACAUGAGGAUCACCCAUGUUAUAGCUACCGAAUAAGGUGGCAA
B10: Eterna 6453269 (Small Loop Same State NG 3) (ssRNA)
RNA: CAGCGAUAGCUAAAGUAUCUAUCAGAGGAUAUUCAUGAAACAUGAGGAUCACCCAUGUGAAACUGGGAGAAGGCUGAUAGAUAG
B11: Eterna 5862108 (Exclusion NG 1) (ssRNA)
RNA: UCACGGGAUUGAGGAUAUAUAUUAAUUUUUUUUAUAGAAGGCAAAAUGUUAGAUUAUUCACUAUACAUGAGGAUCACCCAUGUU
B12: Eterna 6453699 (Inverted Same State NG 2) (ssRNA)
RNA: AGUUUGUUUGAGAAGGUGAAGUGGAAACAUGAGGAUCACCCAUGUAUUAGGAAGCCUGGUUUUGUCAAGGAUAUCGGGUAAACA
B13: Eterna 6033767 (Exclusion 3) (ssRNA)
RNA: AGGGUAGUAGGAUAUACAUGAGGAUCACCCAUGUUUCCAUUACGUGACUGGUCCUAGUGUAGAAGGGCUAGCAC
B14: Eterna 12641 (Exclusion 3) (ssRNA)
RNA: AAUAGCUAAGGAUAUACAUGAGGAUCACCCAUGUAAAACACUACUUGGAACCGCCUCGGUAGAAGGUAGAAAAU
B15: Eterna 12668 (Exclusion 3) (ssRNA)
RNA: UAAAAGCUAGGAUAUACAUGAGGAUCACCCAUGUCACGGGUCCACUCAUCCUAUACGUGUAGAAGGAGCGACCC
B16: Eterna 7734981 (Same State - FMN A) (ssRNA)
RNA: UGUGAGCUGUCGACAAAAGUCGACUAAAGCGAGGAUAUGACGAAAGUCAGAAGGCGUCAAUAAUGGAGUGAUGUUCCUGCUCACU
B17: Eterna 6443967 (Same State NG 2) (ssRNA)
RNA: CUAUAGAUAUGAGGAUAUGUAUAUCCAACAUGAGGAUCACCCAUGUUGAUGAUCACGUAUGUAAAGCAGAAGGCAUAUCUAUAG
B18: Eterna 6373941 (Exclusion NG 3) (ssRNA)
RNA: GUCACGGUUAAUUCCGUGACGCGCAAACCUUGAGGAUCACCCAAGGAUAUCGACGUCAAUGACGUCGAGAAGGUGGUUGAGCGC
B19: Eterna 7707528 (Exclusion - Tryptophan A) (ssRNA)
RNA: GGGAUGUAGUGAUGUUAUAUUGGAUGUAGACGAGGACCGGUACGGCCGCCACUCGUGAUGGCUGCUAGCACGUUUCGAUGUUUGC
B20: Eterna 7692390 (Exclusion - Arginine A) (ssRNA)
RNA: AGUAGGAAACUACAAUCCUCUCUUACUGAAGGAGCGCGUGAAAACGCAGGUAGGUCGCAGGAUUGGAGAGUGAUGUUCUCCUUAA
B21: Eterna 7709739 (Same State - Tryptophan B) (ssRNA)
RNA: UAUAUAGUGACGGCCGCCACUAUAUUAAUGUUUAGGUUAGAGUGAUGUUUUGAUUAAUAUUUUUAUAGGACCGGGUUAUAUGUUA
B22: Eterna 7734974 (Same State - Theophylline A) (ssRNA)
RNA: AAAAUAAAUAAAACACGUAACAUGAAGGAUACCAGACAGGAAACUGUCCCUUGGCAGCCUCUACAUGAGGAUCACCCAUGUCGUG
B23: Eterna 7652698 (Same State - Arginine A) (ssRNA)
RNA: CGGUCGGUCGGCCGGUGAUUAUGGGAUGAAGGAGCGUGGGAAGCUACAGGUAGGUCGCAUCCGAAACAUCACGAUCACGGAUGUU
B24: Eterna 6461519 (Inverted Same State NG 1) (ssRNA)
RNA: GUGCCUAACUAGAAGGCCCAAUGCAAAGCAUCGGGAGGAUAUGGGUUUAAUAAAUAAACAUGAGGAUCACCCAUGUGGCACAAA
B25: Eterna 15533 (Exclusion 1) (ssRNA)
RNA: UCUCGACAUGAGGAUCACCCAUGUCAGGAUAUUGUGUUUGAGGUUUUUUACCUUUUGACAAGAAGGGAUGUGUG
B26: Eterna 6430560 (Small Loop Same State NG 3) (ssRNA)
RNA: ACUUAAAUACCCAAAAGUCGGGCGGAGGAUAUGGAGCUUCCACCACAUGAGGAUCACCCAUGUCUUCAGAAGGCCGCCCUUGGA
B27: Eterna 6381351 (Inverted Exclusion NG 3) (ssRNA)
RNA: CGAUAUAUGAAGGGCGAAAGCCCACAUGAGGAUCACCCAUGUAGAAGGCGGGCCGCAACGCGGCCCGAGGAUAUAUAAUAUACA
B28: Eterna 6450941 (Small Loop Exclusion NG 3) (ssRNA)
RNA: UGGACCGAGCUAUCGGUUGACUGGGAGGAUAUGACAUGAGGAUCACCCAUGUGGGAUCUAAAUUGUCAGAAGGCUCGUUCUGGG
B29: Eterna 7697396 (Exclusion - Arginine B) (ssRNA)
RNA: UGAUAGGACAGAAGGAGCGGGCUAGUCAAAGACUAGCAAACGUUAAUAACAGGAGUGAUGUUCCAGGUAGGUCGCUGUCCUAUCU
B30: Eterna 7653809 (Same State - Theophylline B) (ssRNA)
RNA: UGUAUGUGAUUUGAUACCAGACCAGCUGGUGGUACUUGAGGAACACCCAAGUAGGUUUGGGUCCCUUGGCAGCAAAUCGCAUACU
B31: Eterna 6083193 (Exclusion 6) (ssRNA)
RNA: CCAAGUUCGUAGGAUAUAGAUGCCUUAGGGCAAUUAGAAGGAUGGACAUGAGGAUCACCCAUGUCGGAUUCUGU
B32: Eterna 6124182 (Same State NG 2) (ssRNA)
RNA: GUAGCAUGAUUAGGAUAUUCAGCGAAUAGAUUGACAUGAGGAUCACCCAUGUGGCGAAAGCCGAGGGAGAAGGGAUGAUGCUAC
B33: Eterna 7662739 (Exclusion - Arginine A) (ssRNA)
RNA: CGCGGGCCACAUGAGGAUCACCCAUGUGAAGGAGCGGCGAAUAAGCCAGGUAGGUCGCGCAUGAAUAAAUCAUGUAGGUGGCGAA
B34: Eterna 6461477 (Inverted Same State NG 1) (ssRNA)
RNA: GCUGCAUGUGAGAAGGCGAUCAUGAAACAUGAUCGAGGAUAUCAUGUAAACAUGAGGAUCACCCAUGUAUGGGUAUUAAGCAGC
B35: Eterna 7612197 (Same State - Arginine B) (ssRNA)
RNA: ACGUAAAGCAGAAGGAGCGUCUUCAAUUUACAUGAGGAUCACCCAUGUUUUGUGAUCAUAUGACAGGUAGGUCGCUGAAGUACGA
B36: Eterna 1752 (Same State - Tryptophan B) (ssRNA)
RNA: CUUUUACAGUCGGCCGCCACUGACAGCACUUCAAAGACAGUAUAAGGGUAGUGAUGUUACUUUAUCAGGACCGGGACUACCUAAC
B37: Eterna 6128104 (Same State NG 3) (ssRNA)
RNA: GCUCGAUGAGCUGUCUACAUGAGGAUCACCCAUGUAGAUGGGCAGGAUAUUUACGUGCUUUAUGUAGAGAAGGGCCCAUCGAGC
B38: Eterna 6395528 (Inverted Small Loop Exclusion NG 1) (ssRNA)
RNA: ACAUGGUAGUAGAAGGGUAUUACUUUAGAUACAACCAUUUGUUUAGUUUAUACAGGAUAUGCUUACAUGAGGAUCACCCAUGUU
B39: Eterna 6401867 (Inverted Exclusion NG 1) (ssRNA)
RNA: CCGACGCCUCAGAAGGCACUCGCAUAAUGCGAGUGAGGAUAUGAGGAUCACCCAUAUCAACGUCGGAGUCACCGAAACGGUGAC
B40: Eterna 6451659 (Inverted Exclusion NG 1) (ssRNA)
RNA: GCGUGGUUCUAGAAGGUGCUAGCGAUAAGCUAGCAAGGAUAUAGACAUGAGGAUCACCCAUGUCUUAGUGAAAUGGACACACGC

For the series, the target named is MS2 coat protein, dlFG mutant (Escherichia phage MS2, UniProt P03612, del68-81insG). Description: 4 mM Mg2+; no ligand; RNA-MaP array; 100 mM Tris-HCl pH 7.5, 80 mM KCl, 4 mM MgCl2, 0.1 mg/mL BSA, 1 mM DTT, 0.01 mg/mL yeast tRNA, 0.01% Tween-20; protein 1.5 nM to 3 uM; 37 C (Table S3). Particulars: chain copies: 2; label: tethered by stalled RNA polymerase.
Molecule B1 registered a Kd of 12.4 nM.
The molecule B2 had a Kd of more than 3000 nM.
As for B3, the figure is 330 nM; as for B4, 84.3 nM; as for B5, 18.5 nM.
For the molecule B6, the Kd was 54.4 nM.
The molecule B7 returned a Kd of 34.3 nM.
The same measure for B8: 141 nM.
The same measure for B9: 91.1 nM; for B10: 14.2 nM; for B11: 25.5 nM.
The same measure for B12: 15.2 nM; for B13: 17 nM.
Consider B14, for which the Kd is 20.6 nM.
Turning to B15, the Kd was determined as 17.4 nM.
Take B16: the equilibrium dissociation constant (Kd) is more than 3000 nM.
Regarding B17, binding was put at a Kd of 8.38 nM.
B18: the Kd amounted to 53.8 nM.
As for B19, the figure is more than 3000 nM; as for B20, more than 3000 nM.
As for B21, the figure is more than 3000 nM; as for B22, 246 nM; as for B23, 74.9 nM.
As for B24, the figure is 46 nM; as for B25, 29.8 nM; as for B26, 100 nM.
Turning to B27, the Kd stood at 7.35 nM.
The same measure for B28: 264 nM; for B29: more than 3000 nM; for B30: 177 nM.
As for B31, the figure is 15.8 nM; as for B32, 165 nM.
As for B33, the figure is 18.3 nM.
In the case of B34, the affinity, expressed as Kd, was 272 nM.
In turn, B35 returned a Kd of 127 nM. Compared with the last molecule, the Kd is about 2.1-fold lower.
The same measure for B36: more than 3000 nM; for B37: 191 nM.
The molecule B38 returned a Kd of 9.28 nM.
In the case of B39, binding was characterised by a dissociation constant (Kd) of 11.1 nM.
For B40, the affinity, expressed as Kd, was 4.84 nM.
